Data published in PMC9891525 (2023).

Molecular target: biotinylated recombinant SARS-CoV-2 wild type spike RBD (SARS-CoV-2, UniProt P0DTC2 319-541)
Assay: FACS

B1: REGN10987 scFv displayed on the surface of HEK 293T cells (scFv, V domains shown)
VH: QVQLVESGGGVVQPGRSLRLSCAASGFTFSNYAMYWVRQAPGKGLEWVAVISYDGSNKYYADSVKGRFTISRDNSKNTLYLQMNSLRTEDTAVYYCASGSDYGDYLLVYWGQGTLVTVSS
VL: QSALTQPASVSGSPGQSITISCTGTSSDVGGYNYVSWYQQHPGKAPKLMIYDVSKRPSGVSNRFSGSKSGNTASLTISGLQSEDEADYYCNSLTSISTWVFGGGTKLTVL
- Kd: 8.33 nM
